The target of the experiment is recombinant SARS-CoV-2 spike B.1.617.2 with His-tag (SARS-CoV-2), P0DTC2. Briefly: BLI. For orientation: BLI is a label-free optical method that tracks binding on a fibre tip over time.

GTEWLYKVWKAFVDNMS (designed binder, modifications not checked) [stapled peptide pep39]: the Kd is 4.1 µM.

One may read the Kd as the free concentration of one partner at which half of the binding sites on the other are occupied at equilibrium, for simple one-to-one binding.
